Assay results published in paper doi:10.1101/2021.12.10.472131 (bioRxiv, 2021).

Molecular target: T1, Par-3 PDZ1-APM (residues 309-987) (UniProt O96782 309-987)
T1 sequence (looked up): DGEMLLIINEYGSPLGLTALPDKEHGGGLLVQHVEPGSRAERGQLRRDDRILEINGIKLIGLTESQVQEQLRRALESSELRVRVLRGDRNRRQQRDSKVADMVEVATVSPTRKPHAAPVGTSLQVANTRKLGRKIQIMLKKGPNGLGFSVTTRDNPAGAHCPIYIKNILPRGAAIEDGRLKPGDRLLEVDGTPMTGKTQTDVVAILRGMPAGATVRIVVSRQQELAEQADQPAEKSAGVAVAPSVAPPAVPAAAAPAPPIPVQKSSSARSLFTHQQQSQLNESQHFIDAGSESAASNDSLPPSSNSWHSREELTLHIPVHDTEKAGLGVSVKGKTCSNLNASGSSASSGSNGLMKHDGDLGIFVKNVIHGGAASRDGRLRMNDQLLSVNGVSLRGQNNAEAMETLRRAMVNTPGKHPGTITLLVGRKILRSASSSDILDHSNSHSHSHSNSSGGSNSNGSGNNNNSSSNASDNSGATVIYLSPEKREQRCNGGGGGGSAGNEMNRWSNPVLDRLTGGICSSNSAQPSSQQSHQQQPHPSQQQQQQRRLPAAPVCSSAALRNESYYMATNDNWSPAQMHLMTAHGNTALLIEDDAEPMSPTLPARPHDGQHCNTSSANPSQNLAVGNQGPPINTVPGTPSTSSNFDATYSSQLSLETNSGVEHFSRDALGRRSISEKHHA
Assay: supernatant depletion assay

binding result: binds
B1: his aPKC kinase domain-PBM (residues 259-606) (domain or fragment, UniProt A1Z9X0 259-606, looked up)
chain: YSLNDFELIRVIGRGSYAKVLMVELRRTRRIYAMKVIKKALVTDDEDIDWVQTEKHVFETASNHPFLVGLHSCFQTPSRLFFVIEFVRGGDLMYHMQRQRRLPEEHARFYAAEISLALNFLHEKGIIYRDLKLDNVLLDHEGHIKLTDYGMCKEGIRPGDTTSTFCGTPNYIAPEILRGEDYGFSVDWWALGVLLYEMLAGRSPFDLAGASENPDQNTEDYLFQVILEKTIRIPRSLSVRAASVLKGFLNKNPADRLGCHRESAFMDIVSHPFFKNMDWELLERKQVTPPFKPRLDSDRDLANFPPEFTGEAVQLTPDDDHVIDNIDQSEFEGFEYVNPLLMSLEDCV
